{"source": "paper PMC11039470", "about": "“Catalytic specificity and crystal structure of cystathionine γ-lyase from Pseudomonas aeruginosa” (Scientific Reports, 2024)", "molecules": {"B1": {"name": "cystathionine γ-lyase (PaCGL) (Pseudomonas aeruginosa PAO1) (protein)", "chain": "MSQHDQHPDAPAQAFATRVIHAGQAPDPSTGAIMPPIYANSTYIQESPGVHKGLDYGRSHNPTRWALERCVADLEGGTQAFAFASGLAAISSVLELLDAGSHIVSGNDLYGGTFRLFERVRRRSAGHRFSFVDPTDLQAFEAALTPETRMVWVETPSNPLLRLTDLRAIAQLCRARGIISVADNTFASPYIQRPLELGFDVVVHSTTKYLNGHSDVIGGIAIVGDNPDLRERLGFLQNSVGAISGPFDAFLTLRGVKTLALRMERHCSNALALAQWLERQPQVARVYYPGLASHPQHELAKRQMRGFGGMISLDLRCDLAGARRFLENVRIFSLAESLGGVESLIEHPAIMTHASIPAETRADLGIGDSLIRLSVGVEALEDLQADLAQALAKI", "notes": "PaCGL with N-terminal 6x-His tag"}}, "key": {"[1]": {"molecular_target": "T1, cystathionine γ-lyase (PaCGL) (Pseudomonas aeruginosa, UniProt Q9I6A0)", "T1 construct": "gene PA0400; 394-residue PaCGL (PAO1_PA0400), 6x-His tagged; homotetramer", "test": "intrinsic fluorescence titration of apo-PaCGL; […] Å crystal structure", "type": "binding"}, "[2]": {"molecular_target": "PaCGL F114A variant, N-terminal 6x-His tag (Pseudomonas aeruginosa)", "test": "SEC; gel filtration on Sephacryl S-200 16/60 HR in 20 mM sodium phosphate pH 8.0, 150 mM NaCl, 0.1 mM DTT; calibration curve; self-association (tetramer)"}, "[3]": {"molecular_target": "PaCGL F114N variant (\"humanized\"), N-terminal 6x-His tag (Pseudomonas aeruginosa)", "test": "SEC; gel filtration on Sephacryl S-200 16/60 HR in 20 mM sodium phosphate pH 8.0, 150 mM NaCl, 0.1 mM DTT; calibration curve; self-association (tetramer)"}, "N[C@@H](CS)C(=O)O": {"tested_on": "N[C@@H](CS)C(=O)O", "test": "purified protein", "type": "biochemical, Pseudomonas aeruginosa", "settings": "PLP PLP-containing active site"}, "[4]": {"tested_on": "N[C@@H](CCSC[C@H](N)C(=O)O)C(=O)O", "test": "DTNB assay steady-state kinetics (Km)", "type": "biochemical, Pseudomonas aeruginosa", "settings": "PLP PLP-containing active site"}, "[5]": {"molecular_target": "cystathionine γ-lyase from Pseudomonas aeruginosa (PaCGL), wild type, N-terminal 6x-His tag (Pseudomonas aeruginosa)", "test": "SEC; gel filtration on Sephacryl S-200 16/60 HR in 20 mM sodium phosphate pH 8.0, 150 mM NaCl, 0.1 mM DTT; calibration curve; self-association (tetramer)"}, "[6]": {"substrate": "N[C@@H](CCS)C(=O)O", "test": "lead acetate H2S assay kinetics (Km); LC-MS/MS", "type": "biochemical, Pseudomonas aeruginosa", "settings": "PLP PLP-containing active site"}, "[7]": {"substrate": "N[C@@H](CCSC[C@H](N)C(=O)O)C(=O)O", "test": "DTNB assay steady-state kinetics (Km); UV-Vis and CD spectra; LC-MS/MS", "type": "biochemical, Pseudomonas aeruginosa", "settings": "PLP PLP-containing active site (chamber-1)"}, "purified protein": {"substrate": "N[C@@H](CS)C(=O)O", "test": "purified protein", "type": "biochemical, Pseudomonas aeruginosa", "settings": "PLP amino acid site […] of the active site (second L-Cys at site […])"}}}
{"molecule": "Cc1ncc(COP(=O)(O)O)c(C=O)c1O", "note": "[PLP]", "values": [{"measurement": "Kd", "setting": "[1]", "value": "150 ± 10", "unit": "nM"}]}
{"molecule": "PaCGL F114A variant, N-terminal 6x-His tag (enzyme)", "values": [{"measurement": "stoichiometry N", "setting": "[2]", "value": 4}]}
{"molecule": "PaCGL F114N variant (\"humanized\"), N-terminal 6x-His tag (enzyme)", "values": [{"measurement": "stoichiometry N", "setting": "[3]", "value": 4}]}
{"molecule": "cystathionine γ-lyase (PaCGL) (Pseudomonas aeruginosa PAO1; F114A)", "values": [{"measurement": "Km", "setting": "N[C@@H](CS)C(=O)O", "value": "490 ± 10", "unit": "µM"}, {"measurement": "kcat", "setting": "N[C@@H](CS)C(=O)O", "value": "0.13 ± 0.01", "unit": "s⁻¹"}, {"measurement": "kcat/Km", "setting": "N[C@@H](CS)C(=O)O", "value": "270 ± 30", "unit": "M⁻¹ s⁻¹"}, {"measurement": "Km", "setting": "[4]", "value": "600 ± 100", "unit": "µM"}, {"measurement": "kcat", "setting": "[4]", "value": "3.2 ± 0.2", "unit": "s⁻¹"}, {"measurement": "kcat/Km", "setting": "[4]", "value": "5300 ± 1200", "unit": "M⁻¹ s⁻¹"}]}
{"molecule": "cystathionine γ-lyase (PaCGL) (Pseudomonas aeruginosa PAO1; F114N)", "values": [{"measurement": "Km", "setting": "N[C@@H](CS)C(=O)O", "value": "1600 ± 300", "unit": "µM"}, {"measurement": "kcat", "setting": "N[C@@H](CS)C(=O)O", "value": "0.38 ± 0.06", "unit": "s⁻¹"}, {"measurement": "kcat/Km", "setting": "N[C@@H](CS)C(=O)O", "value": "240 ± 80", "unit": "M⁻¹ s⁻¹"}, {"measurement": "Km", "setting": "[4]", "value": "500 ± 100", "unit": "µM"}, {"measurement": "kcat", "setting": "[4]", "value": "3.2 ± 0.1", "unit": "s⁻¹"}, {"measurement": "kcat/Km", "setting": "[4]", "value": "6400 ± 1500", "unit": "M⁻¹ s⁻¹"}]}
{"molecule": "cystathionine γ-lyase from Pseudomonas aeruginosa (PaCGL), wild type, N-terminal 6x-His tag (enzyme)", "values": [{"measurement": "stoichiometry N", "setting": "[5]", "value": 4}]}
{"molecule": "B1", "values": [{"measurement": "Km", "setting": "[6]", "value": "1700 ± 300", "unit": "µM"}, {"measurement": "kcat", "setting": "[6]", "value": "0.42 ± 0.04", "unit": "s⁻¹"}, {"measurement": "kcat/Km", "setting": "[6]", "value": "250 ± 70", "unit": "M⁻¹ s⁻¹"}, {"measurement": "Km", "setting": "[7]", "value": "300 ± 40", "unit": "µM"}, {"measurement": "kcat", "setting": "[7]", "value": "5.2 ± 0.2", "unit": "s⁻¹"}, {"measurement": "kcat/Km", "setting": "[7]", "value": "17000 ± 3000", "unit": "M⁻¹ s⁻¹"}, {"measurement": "Km", "setting": "purified protein", "value": "430 ± 30", "unit": "µM"}]}
